Reference: patent US11072647B2, “TGF-receptor II isoform, fusion peptide, methods of treatment and methods in vitro” (Onsejo Nacional DE Investigation Cientiticay Tecnica, priority 2013, dated 2021)

Tested on: hASCs cells
Experiment: Cytokine Array G5 of supernatants of lentivirally transduced hASCs
Format: cell-based, human
Design: key to IL-6* secreted by hASC / IGFBP-4 secreted by hASC / IL-7 secreted by hASC / LIF secreted by hASC / TNF-α secreted by hASC / FLT3-L secreted by hASC / SCF secreted by hASC / LIGHT secreted by hASC / IL-3 secreted by hASC / Oncostatin M secreted by hASC / FGF-7 secreted by hASC / FGF-9 secreted by hASC / Angiogenin secreted by hASC / BDNF secreted by hASC / NT-3 secreted by hASC / EGF secreted by hASC / NT-4 secreted by hASC / PIGF secreted by hASC / TIMP-1 secreted by hASC / GRO secreted by hASC / TIMP-2 secreted by hASC / CXCL1 (GROα) secreted by hASC / INF-γ secreted by hASC / CXCL6 (GCP-2) secreted by hASC / IL-2 secreted by hASC / CXCL9 (MIG) secreted by hASC / CXCL10 (IP-10) secreted by hASC / Osteopontin secreted by hASC / CXCL12 (SDF-1) secreted by hASC / Osteoprotegerin secreted by hASC / CXCL13 (BLC) secreted by hASC / CCL1 (I-309) secreted by hASC / Leptin secreted by hASC / CCL2 (MCP-1) secreted by hASC / CCL4 (MIP1b) secreted by hASC / GDNF secreted by hASC / CCL7 (MCP-3) secreted by hASC / IL-10 secreted by hASC / CCL8 (MCP-2) secreted by hASC / IL-13 secreted by hASC / CCL17 (TARC) secreted by hASC / IL-1α secreted by hASC / CCL18 (PARC) secreted by hASC / IL-1β secreted by hASC / CCL20 (MIP3a) secreted by hASC / CCL24 (Eotaxin-2) secreted by hASC / IL-12 p70 secreted by hASC / CCL26 (Eotaxin-3) secreted by hASC / IL-15 secreted by hASC / G-CSF secreted by hASC / IGF-1 secreted by hASC / M-CSF secreted by hASC / IGFBP-1 secreted by hASC / GM-CSF secreted by hASC / IGFBP-3 secreted by hASC / TNF-β secreted by hASC / Onc M secreted by hASC / VEGF secreted by hASC / CXCL5 (ENA-78) secreted by hASC / MIF secreted by hASC / CCL11 (Eotaxin) secreted by hASC / IL-5 secreted by hASC / TGF-β1 secreted by hASC: ↑: Increase or decrease of cytokines levels are referred to the levels secreted by cells transduced with the control vector Lt.eGFP; ↓: Increase or decrease of cytokines levels are referred to the levels secreted by cells transduced with the control vector Lt.eGFP; UC: unchanged levels with respect to cells transduced with the control vector Lt.eGFP; Abs: absent in mock transducer cells control; Abs: absent in mock transducer cells control
Protocol: Furthermore, the effect of TβRII-SE recombinant isoform was measured on a panel of 80 cytokines secreted by hASCs cells (FIG. 16). Cells were transduced with either control Lt-GFP, the TGF-β1 inhibitor Lt. TβRII-DN, or Lt-TβRII-SE and incubated in the presence or absence of exogenous TGF-β1. Collected supernatants were used to analyze the cytokines in a Cytokine Array G5 (Raybiotech, Inc. Norcross, USA).
Increase or decrease of cytokines levels are referred to the levels secreted by cells transduced with the control vector Lt.eGFP either in the presence (paracrine) or absence (autocrine) of exogenous TGF-β1. UC: unchanged levels with respect to cells transduced with the control vector Lt.eGFP. Abs: absent in mock transducer cells control. Dark grey boxes: decreased to undetected levels or absent in the supernatant of cells transduced with control vector Lt.eGFP.
A cytokine/chemokine array kit G5 (Ray Biotech Inc., Norcross, Ga.) was used to detect a panel of 80 secreted cytokines as recommended by the manufacturer. hASCs P7 untransduced or transduced with lentiviral vectors were grown for 72 h in a medium supplemented with 0.1% BSA. Supernatants were collected, filtered and frozen after collection. For densitometry analysis of the arrays, Typhoon 9410 Variable mode Imager (GE Healthcare Life Sciences) was used, and signal intensity values were measured using the Image analysis software ImageQuant TL 7.0 (GE Healthcare Life Sciences). Microarray data were analyzed with RayBio® Antibody Array Analysis Tool. Good data quality and adequate normalization were ensured using internal control normalization without background. Any ≥1.5-fold increase or ≤0.65-fold decrease in signal intensity for a single analyte between samples or groups may be considered a measurable and significant difference in expression, provided that both sets of signals are well above background (Mean background+3 standard deviations, accuracy≈99%).

[1] = Autocrine TGF-β1 (no exogenous TGF-β1), vs Lt.eGFP control
[2] = Paracrine TGF-β1 (3 pg/μl), vs Lt.eGFP control

B1: TβRII-SE: 80 amino acid soluble endogenous isoform of human TGF-β receptor II lacking the transmembrane domain, SEQ ID No. 2 (protein, listed as Homo sapiens)
chain: MGRGLLRGLWPLHIVLWTRIASTIPPHVQKSVNNDMIVTDNNGAVKFPQLCKFCDVRFSTCDNQKSCFSKVHYEGKKKAW
OPG secretion (ASC, high TGF-β1 concentration, vs Lt.eGFP-transduced control cells): dramatic drop | Angiogenin secreted by hASC [1]: UC | BDNF secreted by hASC [1]: UC | CCL1 (I-309) secreted by hASC [1]: UC | CCL2 (MCP-1) secreted by hASC [1]: UC | CCL4 (MIP1b) secreted by hASC [1]: UC | CCL7 (MCP-3) secreted by hASC [1]: UC | CCL8 (MCP-2) secreted by hASC [1]: ↑ | CCL17 (TARC) secreted by hASC [1]: UC | CCL18 (PARC) secreted by hASC [1]: ↓ | CCL20 (MIP3a) secreted by hASC [1]: abs | CCL24 (Eotaxin-2) secreted by hASC [1]: ↓ | CCL26 (Eotaxin-3) secreted by hASC [1]: abs | CXCL1 (GROα) secreted by hASC [1]: UC | CXCL6 (GCP-2) secreted by hASC [1]: UC | CXCL9 (MIG) secreted by hASC [1]: UC | CXCL10 (IP-10) secreted by hASC [1]: UC | CXCL12 (SDF-1) secreted by hASC [1]: UC | CXCL13 (BLC) secreted by hASC [1]: abs | EGF secreted by hASC [1]: abs | FGF-7 secreted by hASC [1]: ↓ | FGF-9 secreted by hASC [1]: UC | FLT3-L secreted by hASC [1]: ↓ | G-CSF secreted by hASC [1]: ↓ | GDNF secreted by hASC [1]: UC | GM-CSF secreted by hASC [1]: ↑ | GRO secreted by hASC [1]: UC | IGF-1 secreted by hASC [1]: ↓ | IGFBP-1 secreted by hASC [1]: UC | IGFBP-3 secreted by hASC [1]: ↓ | IGFBP-4 secreted by hASC [1]: abs | IL-1α secreted by hASC [1]: ↓ | IL-1β secreted by hASC [1]: abs | IL-2 secreted by hASC [1]: UC | IL-3 secreted by hASC [1]: UC | IL-6* secreted by hASC [1]: UC | IL-7 secreted by hASC [1]: ↓ | IL-10 secreted by hASC [1]: UC | IL-12 p70 secreted by hASC [1]: UC | IL-13 secreted by hASC [1]: ↓ | IL-15 secreted by hASC [1]: abs | INF-γ secreted by hASC [1]: ↓ | LIF secreted by hASC [1]: UC | LIGHT secreted by hASC [1]: abs | Leptin secreted by hASC [1]: ↓ | M-CSF secreted by hASC [1]: UC | NT-3 secreted by hASC [1]: UC | NT-4 secreted by hASC [1]: UC | Oncostatin M secreted by hASC [1]: ↓ | Osteopontin secreted by hASC [1]: abs | Osteoprotegerin secreted by hASC [1]: UC | PIGF secreted by hASC [1]: ↓ | SCF secreted by hASC [1]: abs | TIMP-1 secreted by hASC [1]: UC | TIMP-2 secreted by hASC [1]: UC | TNF-α secreted by hASC [1]: ↓ | Angiogenin secreted by hASC [2]: UC | BDNF secreted by hASC [2]: Abs | CCL1 (I-309) secreted by hASC [2]: abs | CCL2 (MCP-1) secreted by hASC [2]: UC | CCL4 (MIP1b) secreted by hASC [2]: abs | CCL8 (MCP-2) secreted by hASC [2]: UC | CCL11 (Eotaxin) secreted by hASC [2]: UC | CCL17 (TARC) secreted by hASC [2]: UC | CCL20 (MIP3a) secreted by hASC [2]: UC | CCL24 (Eotaxin-2) secreted by hASC [2]: abs | CCL26 (Eotaxin-3) secreted by hASC [2]: abs | CXCL1 (GROα) secreted by hASC [2]: abs | CXCL5 (ENA-78) secreted by hASC [2]: UC | CXCL6 (GCP-2) secreted by hASC [2]: ↓ | CXCL9 (MIG) secreted by hASC [2]: ↓ | CXCL10 (IP-10) secreted by hASC [2]: ↓ | CXCL12 (SDF-1) secreted by hASC [2]: abs | CXCL13 (BLC) secreted by hASC [2]: ↓ | EGF secreted by hASC [2]: ↓ | FGF-7 secreted by hASC [2]: Abs | FGF-9 secreted by hASC [2]: UC | FLT3-L secreted by hASC [2]: UC | G-CSF secreted by hASC [2]: ↓ | GDNF secreted by hASC [2]: Abs | GM-CSF secreted by hASC [2]: ↓ | GRO secreted by hASC [2]: UC | IGF-1 secreted by hASC [2]: Abs | IGFBP-1 secreted by hASC [2]: Abs | IGFBP-3 secreted by hASC [2]: ↓ | IGFBP-4 secreted by hASC [2]: ↑ | IL-1α secreted by hASC [2]: ↓ | IL-1β secreted by hASC [2]: UC | IL-2 secreted by hASC [2]: Abs | IL-3 secreted by hASC [2]: ↓ | IL-5 secreted by hASC [2]: ↓ | IL-6* secreted by hASC [2]: UC | IL-7 secreted by hASC [2]: ↓ | IL-10 secreted by hASC [2]: ↓ | IL-12 p70 secreted by hASC [2]: ↓ | IL-13 secreted by hASC [2]: ↓ | IL-15 secreted by hASC [2]: ↓ | INF-γ secreted by hASC [2]: ↓ | LIF secreted by hASC [2]: UC | LIGHT secreted by hASC [2]: ↓ | M-CSF secreted by hASC [2]: abs | MIF secreted by hASC [2]: UC | NT-3 secreted by hASC [2]: ↓ | NT-4 secreted by hASC [2]: Abs | Onc M secreted by hASC [2]: abs | Osteopontin secreted by hASC [2]: ↓ | PIGF secreted by hASC [2]: ↓ | SCF secreted by hASC [2]: UC | TGF-β1 secreted by hASC [2]: UC | TIMP-1 secreted by hASC [2]: UC | TNF-α secreted by hASC [2]: ↓ | TNF-β secreted by hASC [2]: ↓ | VEGF secreted by hASC [2]: UC | HGF secretion upregulation (absence of exogenous TGF-β1): 7.65 times | HGF secretion upregulation (presence of exogenous TGF-β1): 4.16 times
